{"source": "patent US20230330251A1", "about": "“METHODS FOR TREATING CANCERS WITH ANTIBODY DRUG CONJUGATES (ADC) THAT BIND TO 191P4D12 PROTEINS” (AGENSYS, INC., priority 2020, published 2023)", "system": "subjects with previously treated locally advanced or metastatic urothelial cancer", "assay": "EV-301: safety, adverse events (safety analysis set, NCI-CTCAE v4.03, MedDRA)", "key": {"[1]": {"conditions": "Grade Any, N = 296 EV, 291 chemotherapy"}, "[2]": {"conditions": "Grade ≥3, N = 296 EV, 291 chemotherapy"}, "[3]": {"conditions": "MedDRA v23.0, N = 296 EV, 291 chemotherapy"}, "[4]": {"conditions": "No baseline PN, n = 241 EV, 233 chemotherapy"}, "[5]": {"conditions": "PY = 132.3 EV, 96.1 chemotherapy"}, "[6]": {"conditions": "any event, N = 296 EV, 291 chemotherapy"}}, "source_text": "The Safety Analysis Set (SAF) will be used for the safety analysis. All subjects who are randomized and received study drug will be included in the SAF. The frequency of AEs and the serious AEs will be summarized by MedDRA system organ class and preferred term. In addition, summary statistics will be provided for the following safety parameters: • Laboratory values • Vital sign measurements • ECOG PS\nAn AE is any untoward medical occurrence in a subject, temporally associated with the use of a medicinal product, whether or not considered related to the medicinal product. An AE can therefore be any unfavorable and unintended sign (including an abnormal laboratory finding), symptom, or disease (new or exacerbated) temporally associated with the use of a medicinal product.\nAEs, including abnormal clinical laboratory values, will be graded using the NCI-CTCAE guidelines (Version 4.03).\nThe safety analysis set (SAF), which consists of all subjects who received any amount of study drug, will be used for safety analyses.\nSAF was used to perform all safety analysis. All treated subjects were analyzed according to the treatment they received.\nThe number and percentage of AEs by severity were also summarized. All AEs were listed.\nA study drug-related TEAE is defined as any TEAE with a causal relationship of YES by the investigator. AEs of interest as classified by customized MedDRA queries and/or standard MedDRA queries were also summarized."}
{"substance": "enfortumab vedotin", "values": [{"measurement": "TRAE of special interest: Infusion-related reactions, %", "setting": "[1]", "result": 8.8, "unit": "%"}, {"measurement": "TRAE of special interest: Infusion-related reactions, Local events, %", "setting": "[1]", "result": 1.0, "unit": "%"}, {"measurement": "TRAE of special interest: Infusion-related reactions, Systemic events, %", "setting": "[1]", "result": 7.8, "unit": "%"}, {"measurement": "TRAE of special interest: Ocular disorders, %", "setting": "[1]", "result": 18.6, "unit": "%"}, {"measurement": "TRAE of special interest: Peripheral neuropathy, %", "setting": "[1]", "result": 46.3, "unit": "%"}, {"measurement": "TRAE of special interest: Peripheral neuropathy, Motor events, %", "setting": "[1]", "result": 7.4, "unit": "%"}, {"measurement": "TRAE of special interest: Peripheral neuropathy, Sensory events, %", "setting": "[1]", "result": 43.9, "unit": "%"}, {"measurement": "TRAE of special interest: Rash, %", "setting": "[1]", "result": 43.9, "unit": "%"}, {"measurement": "TRAE of special interest: Severe cutaneous adverse reaction, %", "setting": "[1]", "result": 20.3, "unit": "%"}, {"measurement": "TRAE of special interest: Skin reactions, %", "setting": "[1]", "result": 47.0, "unit": "%"}, {"measurement": "TRAE: Alopecia, Number of patients", "setting": "[2]", "result": 0}, {"measurement": "TRAE: Anemia, Number of patients", "setting": "[2]", "result": 8}, {"measurement": "TRAE: Anemia, percent", "setting": "[2]", "result": "(2.7) percent"}, {"measurement": "TRAE: Any adverse event, Number of patients", "setting": "[2]", "result": 152}, {"measurement": "TRAE: Any adverse event, percent", "setting": "[2]", "result": "(51.4) percent"}, {"measurement": "TRAE: Decreased appetite, Number of patients", "setting": "[2]", "result": 9}, {"measurement": "TRAE: Decreased appetite, percent", "setting": "[2]", "result": "(3.0) percent"}, {"measurement": "TRAE: Decreased neutrophil count, Number of patients", "setting": "[2]", "result": 18}, {"measurement": "TRAE: Decreased neutrophil count, percent", "setting": "[2]", "result": "(6.1) percent"}, {"measurement": "TRAE: Decreased white-cell count, Number of patients", "setting": "[2]", "result": 4}, {"measurement": "TRAE: Decreased white-cell count, percent", "setting": "[2]", "result": "(1.4) percent"}, {"measurement": "TRAE: Diarrhea, Number of patients", "setting": "[2]", "result": 10}, {"measurement": "TRAE: Diarrhea, percent", "setting": "[2]", "result": "(3.4) percent"}, {"measurement": "TRAE: Dysgeusia, Number of patients", "setting": "[2]", "result": 0}, {"measurement": "TRAE: Fatigue, Number of patients", "setting": "[2]", "result": 19}, {"measurement": "TRAE: Fatigue, percent", "setting": "[2]", "result": "(6.4) percent"}, {"measurement": "TRAE: Febrile neutropenia, Number of patients", "setting": "[2]", "result": 2}, {"measurement": "TRAE: Febrile neutropenia, percent", "setting": "[2]", "result": "(0.7) percent"}, {"measurement": "TRAE: Maculopapular rash, Number of patients", "setting": "[2]", "result": 22}, {"measurement": "TRAE: Maculopapular rash, percent", "setting": "[2]", "result": "(7.4) percent"}, {"measurement": "TRAE: Nausea, Number of patients", "setting": "[2]", "result": 3}, {"measurement": "TRAE: Nausea, percent", "setting": "[2]", "result": "(1.0) percent"}, {"measurement": "TRAE: Neutropenia, Number of patients", "setting": "[2]", "result": 14}, {"measurement": "TRAE: Neutropenia, percent", "setting": "[2]", "result": "(4.7) percent"}, {"measurement": "TRAE: Peripheral sensory neuropathy, Number of patients", "setting": "[2]", "result": 9}, {"measurement": "TRAE: Peripheral sensory neuropathy, percent", "setting": "[2]", "result": "(3.0) percent"}, {"measurement": "TRAE: Pruritus, Number of patients", "setting": "[2]", "result": 4}, {"measurement": "TRAE: Pruritus, percent", "setting": "[2]", "result": "(1.4) percent"}, {"measurement": "TEAE with special safety interest: Any corneal disorders (SMQ), %", "setting": "[3]", "result": "(1.0%)"}, {"measurement": "TEAE with special safety interest: Any hyperglycemia (SSQ/CMQ), %", "setting": "[3]", "result": "(11.8%)"}, {"measurement": "TEAE with special safety interest: Any infusion related reactions (SSQ/CMQ), %", "setting": "[3]", "result": "(9.1%)"}, {"measurement": "TEAE with special safety interest: Any peripheral neuropathy (SMQ), %", "setting": "[3]", "result": "(50.3%)"}, {"measurement": "TEAE with special safety interest: Any rashes or severe cutaneous adverse reactions, %", "setting": "[3]", "result": "(53.7%)"}, {"measurement": "Treatment-emergent Hyperglycemia, %", "setting": "[4]", "result": "(5.8) %"}, {"measurement": "Treatment-emergent Peripheral motor neuropathy, %", "setting": "[4]", "result": "(9.1) %"}, {"measurement": "Treatment-emergent Peripheral neuropathy, %", "setting": "[4]", "result": "(50.6) %"}, {"measurement": "Treatment-emergent Peripheral sensory neuropathy, %", "setting": "[4]", "result": "(48.5) %"}, {"measurement": "most frequent Grade 3 or greater adverse event(s): rash, hyperglycemia, decreased neutrophil count, fatigue, anemia and decreased appetite, share of patients", "setting": "PADCEV arm", "result": "more than 5%"}, {"measurement": "Grade ≥3 severity TEAE, E (number of events)", "setting": "[5]", "result": 617}, {"measurement": "Grade ≥3 severity TEAE, E/PY", "setting": "[5]", "result": "(4.7) E/PY"}, {"measurement": "Grade ≥3 severity TRAE, E (number of events)", "setting": "[5]", "result": 320}, {"measurement": "Grade ≥3 severity TRAE, E/PY", "setting": "[5]", "result": "(2.4) E/PY"}, {"measurement": "Overall TEAE, E (number of events)", "setting": "[5]", "result": 5051}, {"measurement": "Overall TRAE, E (number of events)", "setting": "[5]", "result": 3033}, {"measurement": "Serious TEAE, E (number of events)", "setting": "[5]", "result": 314}, {"measurement": "Serious TRAE, E (number of events)", "setting": "[5]", "result": 114}, {"measurement": "TEAE Leading to death, E (number of events)", "setting": "[5]", "result": 21}, {"measurement": "TEAE Leading to death, E/PY", "setting": "[5]", "result": "(0.2) E/PY"}, {"measurement": "TEAE Leading to death, excluding disease progression, E (number of events)", "setting": "[5]", "result": 11}, {"measurement": "TEAE Leading to death, excluding disease progression, E/PY", "setting": "[5]", "result": "(0.1) E/PY"}, {"measurement": "TEAE Leading to dose interruption, E (number of events)", "setting": "[5]", "result": 536}, {"measurement": "TEAE Leading to dose interruption, E/PY", "setting": "[5]", "result": "(4.1) E/PY"}, {"measurement": "TEAE Leading to dose reduction, E (number of events)", "setting": "[5]", "result": 170}, {"measurement": "TEAE Leading to dose reduction, E/PY", "setting": "[5]", "result": "(1.3) E/PY"}, {"measurement": "TEAE Leading to treatment withdrawal, E (number of events)", "setting": "[5]", "result": 66}, {"measurement": "TEAE Leading to treatment withdrawal, E/PY", "setting": "[5]", "result": "(0.5) E/PY"}, {"measurement": "TRAE Leading to death, E (number of events)", "setting": "[5]", "result": 7}, {"measurement": "TRAE Leading to death, E/PY", "setting": "[5]", "result": "(0.1) E/PY"}, {"measurement": "TRAE Leading to death, excluding disease progression, E (number of events)", "setting": "[5]", "result": 7}, {"measurement": "TRAE Leading to death, excluding disease progression, E/PY", "setting": "[5]", "result": "(0.1) E/PY"}, {"measurement": "TRAE Leading to dose interruption, E (number of events)", "setting": "[5]", "result": 384}, {"measurement": "TRAE Leading to dose interruption, E/PY", "setting": "[5]", "result": "(2.9) E/PY"}, {"measurement": "TRAE Leading to dose reduction, E (number of events)", "setting": "[5]", "result": 165}, {"measurement": "TRAE Leading to dose reduction, E/PY", "setting": "[5]", "result": "(1.2) E/PY"}, {"measurement": "TRAE Leading to treatment withdrawal, E (number of events)", "setting": "[5]", "result": 51}, {"measurement": "TRAE Leading to treatment withdrawal, E/PY", "setting": "[5]", "result": "(0.4) E/PY"}, {"measurement": "TRAE Leading to dose interruption, %", "setting": "[6]", "result": "(51.0) %"}, {"measurement": "TRAE Leading to dose reduction, %", "setting": "[6]", "result": "(32.4) %"}, {"measurement": "TRAE Leading to dose withdrawal, %", "setting": "[6]", "result": "(13.5) %"}, {"measurement": "Adverse events, regardless of relationship to treatment, that resulted in death (excluding disease progression) during the treatment period", "setting": "in vivo", "result": 11, "unit": "patients"}, {"measurement": "Investigator-assessed treatment-related adverse events that resulted in death", "setting": "in vivo", "result": 7, "unit": "patients"}, {"measurement": "Investigator-assessed treatment-related adverse events that resulted in death, %", "setting": "in vivo", "result": 2.4, "unit": "%"}, {"measurement": "Skin reactions and peripheral neuropathy among treatment-related adverse events of special interest", "setting": "in vivo", "result": "most frequent"}, {"measurement": "Treatment-related adverse events of grade 3 or higher, rate after adjustment for treatment exposure", "setting": "in vivo", "result": 2.4, "unit": "events per patient-year"}, {"measurement": "time to first onset of grade ≥2 peripheral neuropathy, median (range)", "setting": "in vivo", "result": "4.435 (0.36, 12.02) months"}, {"measurement": "treatment-related death: abnormal hepatic function", "setting": "in vivo", "result": 1, "unit": "patient"}, {"measurement": "treatment-related death: hyperglycemia", "setting": "in vivo", "result": 1, "unit": "patient"}, {"measurement": "treatment-related death: multiorgan dysfunction syndrome", "setting": "in vivo", "result": 2, "unit": "patients"}, {"measurement": "treatment-related death: pelvic abscess", "setting": "in vivo", "result": 1, "unit": "patient"}, {"measurement": "treatment-related death: pneumonia", "setting": "in vivo", "result": 1, "unit": "patient"}, {"measurement": "treatment-related death: septic shock", "setting": "in vivo", "result": 1, "unit": "patient"}, {"measurement": "Time to Onset of TRAE of special interest: Blurred vision, Median (range)", "setting": "patients with the event", "result": 2.448, "unit": "months"}, {"measurement": "Time to Onset of TRAE of special interest: Corneal disorders, Median (range)", "setting": "patients with the event", "result": 4.337, "unit": "months"}, {"measurement": "Time to Onset of TRAE of special interest: Dry eye, Median (range)", "setting": "patients with the event", "result": 1.906, "unit": "months"}, {"measurement": "Time to Onset of TRAE of special interest: Hyperglycemia, Median (range)", "setting": "patients with the event", "result": 0.559, "unit": "months"}, {"measurement": "Time to Onset of TRAE of special interest: Infusion-related reactions, Median (range)", "setting": "patients with the event", "result": 0.509, "unit": "months"}, {"measurement": "Time to Onset of TRAE of special interest: Peripheral neuropathy, Median (range)", "setting": "patients with the event", "result": 2.694, "unit": "months"}, {"measurement": "Time to Onset of TRAE of special interest: Skin reactions, Median (range)", "setting": "patients with the event", "result": 0.427, "unit": "months"}, {"measurement": "incidence of treatment-related adverse events", "setting": "safety population", "result": 93.9, "unit": "%"}]}
